Data set [1] deals with T1, DpnI binding domain-Dam(R95A) (synRW) (Streptococcus pneumoniae / Escherichia coli) (UniProt P0AEE8).
T1 sequence: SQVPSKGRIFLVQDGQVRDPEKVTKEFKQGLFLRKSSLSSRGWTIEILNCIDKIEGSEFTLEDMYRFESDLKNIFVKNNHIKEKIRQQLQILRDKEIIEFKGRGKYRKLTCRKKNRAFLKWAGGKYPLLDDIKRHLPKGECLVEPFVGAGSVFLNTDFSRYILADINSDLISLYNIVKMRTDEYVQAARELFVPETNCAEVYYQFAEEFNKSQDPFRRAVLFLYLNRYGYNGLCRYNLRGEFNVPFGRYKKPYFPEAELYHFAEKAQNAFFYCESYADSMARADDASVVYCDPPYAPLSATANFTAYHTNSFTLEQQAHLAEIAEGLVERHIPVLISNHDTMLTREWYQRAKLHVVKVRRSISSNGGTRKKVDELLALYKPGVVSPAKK
Kind of data set: cell_activity. The settings on record: N6-methyladenine at A of GATC; with inducible writer and DpnI-VP64; mCherry-Dam(R95A) gave no increase.

In data set [2] the target is T2, DpnI binding domain-VP64 (synR-VP64) (Streptococcus pneumoniae) (UniProt P0A459).
T2 sequence: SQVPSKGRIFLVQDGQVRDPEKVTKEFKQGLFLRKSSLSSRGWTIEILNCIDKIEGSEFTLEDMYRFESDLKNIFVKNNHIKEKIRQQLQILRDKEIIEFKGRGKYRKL
Kind of data set: cell_activity. The settings on record: N6-methyladenine at A of GATC; integrated interspersed reporter with synI; >100-fold episomal with ZF-Dam(WT).

Consider “GATC (double strand) [adenine-methylated GATC sites of reporter]”, for which the activity (fold increase in GFP activation) in data set [1] is 2. Also, in data set [2], the activity (fold GFP activation) came out at 30.

The record behind these values is patent publication US20180245075.
